Measurements: the nanobody polyreactivity screen of Harvey et al. (2022)

experiment: yeast display, Sf9 membrane polyspecificity reagent, FACS + sequencing; frameworks hold sequencing errors
Outline: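 A synthetic nanobody library was expressed on Saccharomyces cerevisiae BJ5465 by galactose induction for 36–48 hours. The library was stained for 1 hour at 4 °C with 10% biotinylated, detergent-solubilized Sf9 membrane reagent and enriched with streptavidin microbeads before FACS. Low and high (top ~1%) gates were set on anti-HA fluorescence for expression and streptavidin fluorescence for reagent binding, and each polyreactivity label reflects the gate of origin.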

| Sequence | polyreactivity (PSR sort gate) |
| --- | --- |
| QVQLVESVGGLVQAGGSLRLSCAASGRTFYTYAMGWYRQAPGKERELVAAISSSGSTYYADSVKGRFTISRDNAKKTVYLQMNSLKPEDTAVYYCNARTSRYRRGGDSWGQGTQVTVSS | high polyreactivity |
| QVQLVESGGGLVQAGGSLRISCAASGSTFTINVMGWYTQAPGKERELVAAINGGGRTNYADSVKGRFTISRDNAKNTVYLQMNSLIPEDSAVYYCAADGLSIVRQMDYWGLGTQVTVSS | low polyreactivity |
| QVQLVESGGGLVQAGGSLRLSCAASGRIFRYYAMGWYRQAPGKERELVASSTYYADSVKGRFTISRDNAKNTVYLQMNSLKPEDTAVYYCAAVKGTRGWYDYWGQGTQVTVSS | high polyreactivity |
| QVQLVESGGGLVQAGASLRLSCAASGSTLSYAMGWYRQAPGKERELVAAISRSGGSTYYADSVKGRFTISRDNAKNTVYLLMNSLKPEDTAVYYCAADPYPSYANGGYYWGQGTQVTVSS | low polyreactivity |
| QVQLEESGGGLVQAGGSLRLSCAASGRTFSPNTMGWYRQAPGKEREFVAAITASGDSTYYADSVKGRFTISRDNAKYSVYLQMNRLKPEDTAVYYCATDSNWYWGFNYWGQGTQVTVSS | low polyreactivity |
| QVQLVESGGGLVQAGGSLRLSCAASGFIYGYYAKGWYRQAPGKARELVAAISYSGGSTYYADSVKGRFTISRDNAKNTVYLQKNSLKPEDSAVYYCAAVYLGYIYSRYDYWGQGTQVTVSS | low polyreactivity |
| QVQLVESGGGLVQAGGSLRLSCAASGSTFTSYAKGCYRQAPGKERELVAAISRRGTSTYYADSVKGRFTISRDNAKHTVYLQMNSLKPEDTAVYYCAADGYYCEYYYWGQGTQVTVSS | high polyreactivity |
| QVQLVESGGGLVQAGGSLRLSCAASGRIFYYYVMGWYRQAPGKERELVAAISSRGGCTYYADSVKGRFTISRDNAKNTVYLQMNSLKPEDTAVYYCAAEYGSISLRYPYYWRYDYWGQGTQVTVSS | high polyreactivity |
| QVQLVESGGGLVQAGGSLRLSCAASGFTFVYNAMGWYRQAPGKERELVAAISSRGGSTFYADSVKGRFTISRDNAKNTVYLQMNSLKPEDTAVYYCNAVPGWTYDYWGQGTQVTVSS | high polyreactivity |
| QVQLVESGGGLVQAGGSLRLSCAASGFTFSRYAMGWYRQAPGKERELVAAITLGGGNTYYADSVKGRFTISRDNAKYSVYLQMNSLKREDTSVYYCNAKFGIFGYRSGGYDYWGEGTQVTVSS | high polyreactivity |
| QVQLVESGAGLVQAGGSLRLSCAASGFIFEINAMGWYRQAPGKERELVAVITNSGGSTYYADSVKGRFTISRDNAKYTVYLQMNSLKPEDTAVYYCAADAVHYTNDWYDYWGQGTQVTVSS | low polyreactivity |
| QVQLVESGGGLVQAGGRLRLSCAASGSIFPANAMGGSRQAPGKERELVAGISERGSSTYYADSVKGRFTISRDNAKNTVYLQMNSLKPEDTAVYYCAADDVGRYWSSTHNWARGDYWGQGTQVTVSS | low polyreactivity |
| QVQLVESGGGLVQAGGSLRLSCAASGSTFNAYAMGWNRQAPGKERELVAVISSSGGRTYYADSVKGRFTISRDNAKNTVYLQMNSLKPEDTAVYYCNADVKYRYNHWGQGTQVTVSS | high polyreactivity |
| QVQLVESGGGLVQAGGSLRLSCAASGFTFKFYAMGWYRQAPGKEMEFVAAISGSGGSTYYADSVKRRFTISRDNAKNTVYLQMNSLKPEDTAVYYCAAEVPGKPYRRSRYSFRHDYWGQGTQVTVSS | low polyreactivity |
| QVQLVESGGGLVQAGGSLRLSCAAYGSTFYVYAMGWYRQAPGKESELVAAITSAGSTNYADSVKGRFTISRDNAKYTVYLQMNSLKPEDTAVYYCAVYFDTFYGHMYYWGQCTQVTVSS | low polyreactivity |
| QVQLVESGGGLVQAGGSLRLSCAASGRTFIGYAMGWYRQAPGKERELVATISVSGGSTYYADSVKGRFTISRDNAKNTVYLQMNSLKPEVTAVYYCAKAYLRYYDGPYDYWGHGTQVTVSS | low polyreactivity |
| HVQLVESGGGLVQAGGSLRLSCAASGSTFFWYAMGWYRQATGKERELVAAISKTGGSTYYADSVKGRFTISRDNAQNTVYLQMNSLKPEDTAVYYCNAVRYASKAARSFDYWGQGTQVTVSS | low polyreactivity |
